# Data published in patent publication US12269859B2, “Synthetic immune receptors and methods of use thereof” (Angeles Therapeutics, Inc., priority 2016, dated 2025).
# Key:
# [1] = system: target antigen-expressing cell line; experiment: Jurkat NFAT-GFP assay, coculture with target cell lines expressing the respective target antigen (summary Table 10A); format: cell-based, human; design: key: The signs +/−, +, 2+ etc. after the name of the cell lines indicate the relative degree of positivity on the Jurkat-NFAT-GFP assay as measured by the % GFP positive cells; +: relative degree of positivity on the Jurkat-NFAT-GFP assay as measured by the % GFP positive cells; 2+: relative degree of positivity on the Jurkat-NFAT-GFP assay as measured by the % GFP positive cells
# In short: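 Coculture of SIR-bearing Jurkat NFAT-GFP reporters with target cells, ~1:2 E:T, ~4–18 h. FACS quantified % GFP+ cells, ranked semi-quantitatively against parental Jurkat-NFAT-GFP.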
# [2] = system: RAJI cells; experiment: Jurkat NFAT-GFP assay, coculture with RAJI cells; format: cell-based, human; settings: overnight co-culture with RAJI cells; Table 10C
# Procedure: (B) Induction of NFAT promoter driven GFP expression. The control vector- and SIR-expressing Jurkat-NFAT-GFP cocultured for 4-24 hours with the target antigen-expressing cell line (described above) and their ability to bind to the target antigen is assayed by measuring induction of GFP expression using Flow Cytometry. Cellular supernatant is collected and assayed for the induction of cytokines (e.g., IL2).
# Jurkat NFAT-GFP Assay For Synthetic Immune Receptors. The Jurkat-NFAT-GFP cells are engineered in such a way that the IL-2 promoter, which carries NFAT binding sites, is cloned upstream of the GFP gene. These cells have been used to study signaling via TCR and CAR. The different SIRs were stably expressed in Jurkat NFAT-GFP cells by lentiviral mediated gene transfer, followed by selection with puromycin. The SIR-expressing Jurkat-NFAT-GFP cells were cocultured with the target cells at E:T ratio of approximately 1:2 for approximately 4 hours to 18 hours. When the interaction between SIRs and their target antigen results in activation of the NFAT pathway, GFP expression is induced.
# Induction of GFP expression by coculturing of Jurkat-NFAT-GFP cells expressing different SIR constructs and the different target cells was studied essentially as described previously (Wu, Roybal, Puchner, Onuffer, & Lim, 2015). GFP expression was monitored by FACS analysis. […] In panel B, Jurkat cells expressing SIR targeting CDH6 (Clone ID: 051716-J05), CD276 (Clone ID: 050516-Q06) and Her2/neu (Clone ID: 050516-I03) were incubated with SKOV3 (top) and […] (middle and bottom) cells, respectively. […] The Jurkat-NFAT-GFP cells were engineered to express different SIRs targeting other antigens and the experiment repeated upon coculture with the target cells expressing their respective target antigen. The Jurkat-NFAT-GFP (parental) cells were used as control. […] The names of different SIRs, their SEQ ID NOs, component antigen binding domains and TCR chains can be determined by reference to Tables 7A-7H. A SIR is considered positive in the assay in case the SIR expressing Jurkat-NFAT-GFP cells show greater % GFP positive cells when cultured with the target cell line as compared to parental Jurkat-NFAT-GFP cells. […] The signs +/−, +, 2+ etc. after the name of the cell lines indicate the relative degree of positivity on the Jurkat-NFAT-GFP assay as measured by the % GFP positive cells after culture of the SIR expressing Jurkat-NFAT-GFP cells with that cell line.
Molecule,NFAT-GFP (%) [2] [%],other results
"080816-G03 (protein, Polynucleotide encoding a Synthetic Immune Receptor (SIR)) MALPVTALLLPLALLLHAARPLEGKPIPNPLLGLDSTGSGEDLKNVFPPEVAVFEPSKAEIAHTQKATLVCLATGFYPDHVELSWWVNGKEVHSGVCTDPQPLKEQPALNDSRYCLSSRLRVSATFWQNPRNHFRCQVQFYGLSENDEWTQDRAKPVTQIVSAEAWGRADCGITSASYHQGVLSATILYEILLGKATLYAVLVSALVLMAMVKRKDSRGRAKRSGSGATNFSLLKQAGDVEENPGPTSTMALPVTALLLPLALLLHAARPDIVMTQSQKFMSTSVGDRVSIICKASQNVGTFVAWYQQKPGQSPKLLVYSASNRYTGVPDRFTGSGSGTDFTLTINNMQSEDLADYFCRQYSSYPYTFGGGTKLEIKGGGGSGGGGSGGGGSEVQLQQSGPELVKPGASMKISCKASGYSFSAYTMNWVKQSHGKNLEWIGLINPYNGGTNYNQEFEGKATLTVNKSSNTAFMELLSLTSDDSAVYYCARRDWDYFDYWGQGTTLTVSSTREQKLISEEDLGSGTPFPSLAPPIMLLVDGKQQMVVVCLVLDVAPPGLDSPIWFSAGNGSALDAFTYGPSPATDGTWTNLAHLSLPSEELASWEPLVCHTGPGAEGHSRSTQPMHLSGEASTARTCPQEPLRGTPGGALWLGVLRLLLFKLLLFDLLLTCSCLCDPAGPLPSPATTTRLRALGSHRLHPATETGGREATSSPRPQPRDRRWGDTPPGRKPGSPVRAKRSGSGVKQTLNFDLLKLAGDVESNPGPSRSRGHMTEYKPTVRLATRDDVPRAVRTLAAAFADYPATRHTVDPDRHIERVTELQELFLTRVGLDIGKVWVADDGAAVAVWTTPESVEAGAVFAEIGPRMAELSGSRLAAQQQMEGLLAPHRPKEPAWFLATVGVSPDHQGKGLGSAVVLPGVEAAERAGVPAFLETSAPRNLPFYERLGFTVTADVEVPEGPRTWCMTRKPGA",,NFAT-GFP ASSAY Positive Cell lines ([1]; coculture with TT cells): TT (+/−)
10815 (protein) MALPVTALLLPLALLLHAARPDIQMTQSPSSLSASVGDRVTITCKASDHINNWLAWYQQKPGQAPKLLIYGATTLETGVPSRFSGSGSGTDYTLTISSLQPEDFATYYCQQSWNTPWTFGQGTKLEIKRLEIQNPDPAVYQLRDSKSSDKSVCLFTDFDSQTNVSQSKDSDVYITDKCVLDMRSMDFKSNSAVAWSNKSDFACANAFNNSIIPEDTFFPSSDVPCDVKLVEKSFETDTNLNFQNLSVIGFRILLLKVAGFNLLMTLRLWSSRAKRSGSGVKQTLNFDLLKLAGDVESNPGPTSMDWIWRILFLVGAATGAHSFEQVQLQQPGAELVKPGASVKMSCKASGYAFSSYWINWMKQKPGQGLEWIGQIYPGDGDTNYNGKFKGRATLTADTSSSTAYMQLSSLTSEDSAVYFCARSITTVVGCAMDYWGQGTSVTVSSTREDLKNVFPPEVAVFEPSKAEIAHTQKATLVCLATGFYPDHVELSWWVNGKEVHSGVCTDPQPLKEQPALNDSRYCLSSRLRVSATFWQNPRNHFRCQVQFYGLSENDEWTQDRAKPVTQIVSAEAWGRADCGITSASYHQGVLSATILYEILLGKATLYAVLVSALVLMAMVKRKDSRGRAKRSGSGATNFSLLKQAGDVEENPGPSRGHMTEYKPTVRLATRDDVPRAVRTLAAAFADYPATRHTVDPDRHIERVTELQELFLTRVGLDIGKVWVADDGAAVAVWTTPESVEAGAVFAEIGPRMAELSGSRLAAQQQMEGLLAPHRPKEPAWFLATVGVSPDHQGKGLGSAVVLPGVEAAERAGVPAFLETSAPRNLPFYERLGFTVTADVEVPEGPRTWCMTRKPGA,52.36,
"1038 (protein, Synthetic polynucleotide encoding a SIR) MALPVTALLLPLALLLHAARPEIVLTQSPATLSLSPGERATLSCSASSSVSYMHWYQQKPGQAPRLLIYDTSKLASGIPARFSGSGSGTDFTLTISSLEPEDVAVYYCFQGSVYPFTFGQGTKLEIKRLEGKPIPNPLLGLDSTGSGEDLKNVFPPEVAVFEPSEAEISHTQKATLVCLATGFYPDHVELSWWVNGKEVHSGVSTDPQPLKEQPALNDSRYCLSSRLRVSATFWQNPRNHFRCQVQFYGLSENDEWTQDRAKPVTQIVSAEAWGRADCGFTSESYQQGVLSATILYEILLGKATLYAVLVSALVLMAMVKRKDSRGRAKRSGSGATNFSLLKQAGDVEENPGPTSMDWIWRILFLVGAATGAHSFEQVQLQESGPGLVKPSQTLSLTCTVSGGSISTSGMGVGWIRQHPGKGLEWIGHIWWDDDKRYNPALKSRVTISVDTSKNQFSLKLSSVTAADTAVYYCARMELWSYYFDYWGQGTLVTVSSTREQKLISEEDGSGIQNPDPAVYQLRDSKSSDKSVCLFTDFDSQTNVSQSKDSDVYITDKTVLDMRSMDFKSNSAVAWSNKSDFACANAFNNSIIPEDTFFPSPESSCDVKLVEKSFETDTNLNFQNLSVIGFRILLLKVAGFNLLMTLRLWSSRAKRSGSGVKQTLNFDLLKLAGDVESNPGPSRGHMTEYKPTVRLATRDDVPRAVRTLAAAFADYPATRHTVDPDRHIERVTELQELFLTRVGLDIGKVWVADDGAAVAVWTTPESVEAGAVFAEIGPRMAELSGSRLAAQQQMEGLLAPHRPKEPAWFLATVGVSPDHQGKGLGSAVVLPGVEAAERAGVPAFLETSAPRNLPFYERLGFTVTADVEVPEGPRTWCMTRKPGA",4.49,
11245 (protein) MALPVTALLLPLALLLHAARPDIQMTQSPSSLSASVGDRVTITCKASDHINNWLAWYQQKPGQAPKLLIYGATTLETGVPSRFSGSGSGTDYTLTISSLQPEDFATYYCQQSWNTPWTFGQGTKLEIKRLEDLKNVFPPEVAVFEPSKAEIAHTQKATLVCLATGFYPDHVELSWWVNGKEVHSGVCTDPQPLKEQPALNDSRYCLSSRLRVSATFWQNPRNHFRCQVQFYGLSENDEWTQDRAKPVTQIVSAEAWGRADCGITSASYHQGVLSATILYEILLGKATLYAVLVSALVLMAMVKRKDSRGRAKRSGSGATNFSLLKQAGDVEENPGPTSMDWIWRILFLVGAATGAHSFEQVQLQQPGAELVKPGASVKMSCKASGYAFSSYWINWMKQKPGQGLEWIGQIYPGDGDTNYNGKFKGRATLTADTSSSTAYMQLSSLTSEDSAVYFCARSITTVVGCAMDYWGQGTSVTVSSTRIQNPDPAVYQLRDSKSSDKSVCLFTDFDSQTNVSQSKDSDVYITDKCVLDMRSMDFKSNSAVAWSNKSDFACANAFNNSIIPEDTFFPSSDVPCDVKLVEKSFETDTNLNFQNLSVIGFRILLLKVAGFNLLMTLRLWSSRAKRSGSGVKQTLNFDLLKLAGDVESNPGPSRGHMTEYKPTVRLATRDDVPRAVRTLAAAFADYPATRHTVDPDRHIERVTELQELFLTRVGLDIGKVWVADDGAAVAVWTTPESVEAGAVFAEIGPRMAELSGSRLAAQQQMEGLLAPHRPKEPAWFLATVGVSPDHQGKGLGSAVVLPGVEAAERAGVPAFLETSAPRNLPFYERLGFTVTADVEVPEGPRTWCMTRKPGA,71.81,
"102116-A05 (protein, Synthetic Immune Receptor (SIR)) MRLPAQLLGLLMLWVSGSSGDVVMTQSPLSLPVTPGAPASISCRSSQSIVHSNGNTYLEWYLQKPGQSPKLLIYKVSNRFSGVPDRFSGSGSGTDFTLRISRVEAEDVGIYYCFQGSHVPPTFGPGTKLEIKLEEQKLISEEDLGSGEDLKNVFPPEVAVFEPSKAEIAHTQKATLVCLATGFYPDHVELSWWVNGKEVHSGVCTDPQPLKEQPALNDSRYCLSSRLRVSATFWQNPRNHFRCQVQFYGLSENDEWTQDRAKPVTQIVSAEAWGRADCGITSASYHQGVLSATILYEILLGKATLYAVLVSALVLMAMVKRKDSRGRAKRSGSGATNFSLLKQAGDVEENPGPTSMDWIWRILFLVGAATGAHSFEEVQLVESGGGLVQPGGSLRLSCSASGFTFSSFGMHWVRQAPGKGLEWVAYISSGSSTIYYGDTVKGRFTISRDNAKNSLFLQMSSLRAEDTAVYYCAREGGYYYGRSYYTMDYWGQGTTVTVSTREQKLISEEDLGSGIQNPDPAVYQLRDSKSSDKSVCLFTDFDSQTNVSQSKDSDVYITDKCVLDMRSMDFKSNSAVAWSNKSDFACANAFNNSIIPEDTFFPSSDVPCDVKLVEKSFETDTNLNFQNLSVIGFRILLLKVAGFNLLMTLRLWSSRAKRSGSGVKQTLNFDLLKLAGDVESNPGPSRGHMTEYKPTVRLATRDDVPRAVRTLAAAFADYPATRHTVDPDRHIERVTELQELFLTRVGLDIGKVWVADDGAAVAVWTTPESVEAGAVFAEIGPRMAELSGSRLAAQQQMEGLLAPHRPKEPAWFLATVGVSPDHQGKGLGSAVVLPGVEAAERAGVPAFLETSAPRNLPFYERLGFTVTADVEVPEGPRTWCMTRKPGA",,"NFAT-GFP ASSAY Positive Cell lines: RAJI ([1]; SIR-expressing Jurkat-NFAT-GFP cells cocultured with RAJI, relative % GFP positive cells): RAJI (+/−), U266; NFAT-GFP ASSAY Positive Cell lines: U266 ([1]; SIR-expressing Jurkat-NFAT-GFP cells cocultured with U266, relative % GFP positive cells): (+/−)"
